In the supplement of paper PMC7877785:
± gives the uncertainty stated by the source.

Experiment: self-splicing fitness, log relative to wild type (ln ratio); higher = more splicing; Tetrahymena group I intron in knt gene, E. coli kanamycin selection, DiMSum; sequences stand for … in CUCUCU…GGAGGGAAAAGUUAUCAGGCAUGCACCUGGUAGCUAGUCUUUAAACCAAUAGAUUGCAUCGGUUUAAAAGGCAAGACCGUCAAAUUGCGGGAAAGGGGUCAACAGCCGUUCAGUACCAAGUCUCAGGGGAAACUUUGAGAUGGCCUUGCAAAGGGUAUGGUAAUAAGCUGACGGACAUGGUCCUAACCACGCAGCCAAGUCCUAAGUCAACAGAUCUUCUGUUGAUAUGGAUGCAGUUCACAGACUAAAUGUCGGUCGGGGAAGAUGUAUUCUUCUCAUAAGAUAUAGUCGGACCUCUCCUUAAUGGGAGCUAGCGGAUGAAGUGAUGCAACACUGGAGCCGCUGGGAACUAAUUUGUAUGCGAAAGUAUAUUGAUUAGUUUUGGAGUACUCGUGGUCG
Method in brief: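 The eight P1ex-region nucleotides of an intron in the knt kanamycin-resistance gene on pET-22b(+) were all randomised and the library put into E. coli BL21(DE3). Six replicate transformations were grown overnight at 37°C or 30°C on LB agar with or without 25 μg/mL kanamycin, together with 100 μg/mL carbenicillin, 50 μM IPTG and 0.2% rhamnose. Colonies were pooled and amplicon-sequenced on an Illumina HiSeq 2500. Fitness from DiMSum is the error-weighted combination of wild-type-normalised replicate fold changes, kanamycin over none.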

Sequence	self-splicing fitness (ln) (30 °C)	self-splicing fitness (ln) (37 °C)
GACAAGCAAUAUUACGAAGC	-2.96 ± 0.22	-2.15 ± 0.28
GACAAGCAAUAUUACGAGCA	-1.12 ± 0.093	-0.355 ± 0.092
GACAAGCAAUAUUACGAGUA	-2.1 ± 0.12	-0.706 ± 0.098
GACAAGCAAUAUUACGAUAC	-1.73 ± 0.094	-1.28 ± 0.11
GACAAGCAAUAUUACGAUGU	-1.66 ± 0.067	-1.65 ± 0.11
GACAAGCAAUAUUACGCAAU	-3.08 ± 0.15	-1.58 ± 0.12
GACAAGCAAUAUUACGCCGU	-2.93 ± 0.14	-0.97 ± 0.12
GACAAGCAAUAUUACGCGAG	-1.25 ± 0.11	-2.03 ± 0.15
GACAAGCAAUAUUACGCGAU	-2.96 ± 0.13	-1.02 ± 0.099
GACAAGCAAUAUUACGGACG	-1.75 ± 0.098	-0.673 ± 0.12
GACAAGCAAUAUUACGGAGC	-2.2 ± 0.09	-1.65 ± 0.13
GACAAGCAAUAUUACGGCGU	-0.596 ± 0.063	-0.154 ± 0.08
GACAAGCAAUAUUACGGGUA	-0.935 ± 0.066	-0.82 ± 0.069
GACAAGCAAUAUUACGGUGA	-1.3 ± 0.065	-0.86 ± 0.086
GACAAGCAAUAUUACGUAGU	-3.92 ± 0.18	-1.65 ± 0.11
GACAAGCAAUAUUACGUUGG	-3.26 ± 0.11	-2.56 ± 0.14
GACAAGCAAUAUUACGUUUA	-1.66 ± 0.084	-1.58 ± 0.089
GACCAGCAAUAUUACGACAA	-0.854 ± 0.099	-0.621 ± 0.13
GACCAGCAAUAUUACGAUCU	-0.841 ± 0.091	-0.153 ± 0.1

Sequence	self-splicing fitness (ln) (30 °C)	self-splicing fitness (ln) (37 °C)
GACCAGCAAUAUUACGAUGG	-3.69 ± 0.19	-2.82 ± 0.21
GACCAGCAAUAUUACGCAGC	-0.913 ± 0.11	-0.292 ± 0.13
GACCAGCAAUAUUACGCCCU	-0.482 ± 0.11	-0.286 ± 0.12
GACCAGCAAUAUUACGCGCC	-0.0376 ± 0.14	-0.617 ± 0.18
GACCAGCAAUAUUACGCGGG	-3.03 ± 0.13	-2.79 ± 0.19
GACCAGCAAUAUUACGGCCC	-2.54 ± 0.24	-1.98 ± 0.34
GACCAGCAAUAUUACGGCCG	-0.246 ± 0.063	0.158 ± 0.093
GACCAGCAAUAUUACGGGAC	-2.5 ± 0.092	-1.03 ± 0.092
GACCAGCAAUAUUACGGGUA	-0.533 ± 0.058	-0.146 ± 0.061
GACCAGCAAUAUUACGGGUU	-4.24 ± 0.21	-2.53 ± 0.18
GACCAGCAAUAUUACGGUUA	-0.367 ± 0.046	-0.221 ± 0.056
GACCAGCAAUAUUACGUGAA	-0.0938 ± 0.063	0.524 ± 0.089
GACCAGCAAUAUUACGUGGU	-2.67 ± 0.095	-3.29 ± 0.15
GACCAGCAAUAUUACGUGUG	-0.363 ± 0.047	-0.452 ± 0.058
GACGAGCAAUAUUACGAAGG	-3.03 ± 0.19	-2.52 ± 0.33
GACGAGCAAUAUUACGACAG	–	-1.89 ± 0.23
GACGAGCAAUAUUACGAGGU	-3.81 ± 0.28	-2.38 ± 0.27
GACGAGCAAUAUUACGAUUU	-0.943 ± 0.085	-1.19 ± 0.098
GACGAGCAAUAUUACGCAAA	-3.39 ± 0.27	-1.96 ± 0.22
